We go through five molecules from PMC12126530, “A low-complexity linker as a driver of intra- and intermolecular interactions in DNAJB chaperones” (Nature Communications, 2025).

Common to all, as to details: both partners purified
In assay [1] the target is T1, Full-length Hsc70-T204A (ATPase deficient mutant) (human, UniProt P11142 1-646, T204A).
T1 construct: Hsc70, the constitutively expressed cytosolic form of human Hsp70; full length with the ATPase-deficient mutation T204A; source: pET-15b vector, expression at 25 °C overnight, purified (StrepTactin, TEV cleavage, Superdex 200)
Put plainly: NMR 15N-CPMG relaxation dispersion and exchange-induced shifts; 15N-labelled JDP observed, unlabelled Hsc70-T204A added to a molar ratio of 0.1 (DNAJB6 JD-GF 200 uM, DNAJB6 JD 350 uM, DNAJB1 300 uM); 25 °C; 20 mM HEPES pH 7.0, 50 mM KCl, 2.5 mM MgCl2; ATP-regenerating system with 2.5 mM ATP; fit to a two-state binding model.

For assay [2], the target named is T2, Full-length Hsc70-T204A (ATPase deficient mutant) (human, UniProt P11142 1-646, T204A).
T2 construct: Hsc70, the constitutively expressed cytosolic form of human Hsp70, full length, with T204A; 5 mM ATP in fluorescence polarisation; also called hydrolysis deficient Hsc70 mutant T204A; source: pET-15b vector, expressed at 25 °C overnight, purified (StrepTactin, TEV cleavage, Superdex 200)
Put plainly: NMR 15N-CPMG relaxation dispersion with exchange-induced shifts; 15N-labelled JDP (DNAJB6 JD-GF 200 μM, DNAJB6 JD 350 μM, DNAJB1 300 μM) with unlabelled Hsc70-T204A at a molar ratio of 0.1, ATP-regenerating system, 20 mM HEPES pH 7.0, 50 mM KCl, 2.5 mM MgCl2, 25 °C, 600, 800 and 950 MHz; fit to a 2-state model; kex = kon app + koff.

For assay [3], the target named is T1, Full-length Hsc70-T204A (ATPase …). Put plainly: fluorescence polarisation; direct binding: Hsc70-T204A titrated into 300 nM fluorescein-labelled DNAJB6 JD; 25 °C; 20 mM HEPES pH 7.0, 50 mM KCl, 5 mM MgCl2, 5 mM ATP; four-point logistic fit, 1:1 model.

B1: DNAJB1 JD-GF (domain or fragment)
chain: not shown
modifications: 15N-labelled; limits by convention: ends just before helix 5 (DNAJB6 helix 5 is 96-104, and DNAJB6 F91 aligns with DNAJB1 Y92, giving about 97-105); start as in PDB 6Z5N
Consider B1, for which, in assay [1], the Kd worked out at 288 ± 13 µM, the koff stood at 1700 ± 40 s⁻¹ and the kon was determined as 5.91e+06 M⁻¹ s⁻¹.

B2: DNAJB1 JD-GF (domain or fragment)
chain: not shown
modifications: 15N-labelled; limits by convention: ends just before helix 5 (DNAJB6 helix 5 is 96-104, and DNAJB6 F91 aligns with DNAJB1 Y92, giving about 97-105); start as in PDB 6Z5N
For B2, the Kd in assay [2] was approximately 300 µM.

B3: DNAJB6 JD (domain or fragment)
chain: not shown
notes: DNAJB6, construct truncated immediately after the J-domain; 15N-labelled for NMR; also called isolated JD of DNAJB6; DNAJB6 J-domain; source: E. coli BL21(DE3), purified (HisTrap, TEV cleavage, C18 reverse phase HPLC); not shown: His-tag, N-terminal, cleaved
For the molecule B3, in assay [1], the Kd was found to be 3.4 ± 1.1 µM, the off-rate constant (koff) was 2740 ± 51 s⁻¹ and the association rate constant (kon) was 8e+08 M⁻¹ s⁻¹.

B4: DNAJB1 JD (domain or fragment)
chain: not shown
notes: DNAJB1, construct truncated immediately after the J-domain; also called DNAJB1 1-67; JD of DNAJB1; source: E. coli BL21(DE3), purified (HisTrap, TEV cleavage, C18 reverse phase HPLC); not shown: His-tag, N-terminal, cleaved
Take B4: in assay [1], the Kd was approximately 450 µM.

B5: Fluorescently labelled DNAJB6 JD (with an additional C-terminal GSSC sequence) (domain or fragment)
chain: not shown
modifications: Fluorescein-5-Maleimide on the C-terminal cysteine
notes: DNAJB6 J-domain construct; not shown: His-tag, N-terminal, cleaved
In turn, B5 gave a Kd in assay [3] of 18 ± 6.5 µM.
